Consider one molecule from PMC4826628.

The target of the data set is Dlx5[Q178P] homeodomain (Homo sapiens, UniProt P56178 137-198, Q178P). Description: CD thermal denaturation.
Chain of Dlx5[Q178P] homeodomain (P56178 137-198 Q178P): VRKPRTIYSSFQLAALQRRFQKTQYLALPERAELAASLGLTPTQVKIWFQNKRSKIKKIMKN

B1: 14-bp palindromic TAAT duplex (dsDNA)
DNA 1: CGACTAATTAGTCG
DNA 2: CGACTAATTAGTCG
Turning to B1, the binding result was “binds”.
